Results taken from patent publication EP2654803B1, “RADIOLABELED HER2-BINDING PEPTIDE CONJUGATES” (General Electric Company, priority 2010, dated 2021).
Like-named read-outs stand apart in the source and are kept apart here.

Assays:
SKOV3 tumors [1] = test system: SKOV3 tumors; parameters: species or system female CD-1 nude mice; details: mouse, in vivo
Procedure: In vivo studies were carried out with female CD-1 nude mice (Charles River Labs, Hopkinton, MA) with an age range between 6 and 15 weeks. Mice were housed in a ventilated rack with food and water ad libitum and a standard 12 hour day-night lighting cycle. For xenografts, animals were injected with 100 µl of cells in PBS. Cells were implanted subcutaneously in the right hindquarter. Implantation was performed under isoflurane anesthesia. For SKOV3, between 3 x 10^6 to 4 x 10^6 cells were implanted in each mouse. Under these conditions, useable tumors ([…]) were obtained in 3 to 4 weeks in greater than 80% of animals injected. Mice were given tail-vein injections of ∼1 ug of ^18F-labeled polypeptide (∼4 uCi/1 µg). Mice were placed in filter-paper lined cages until euthanasia. Three mice were euthanized at each timepoint and tissues of interest dissected and counted on a Perkin Elmer Wallac Wizard 1480 Gamma Counter. Data were collected for blood, kidney, liver, spleen, bone and injection site (tail). Urine from cages was pooled with the bladder and also counted. The remaining tissues were counted and the sum of all tissues plus urine for each animal was summed to provide the total injected dose. The percent injected dose for each organ was determined based on this total, and organs were weighed for determination of the percent injected dose per gram, (%ID/g). […]

SKOV3 tumors [2] = test system: SKOV3 tumors; parameters: species or system female CD-1 nude mice; details: mouse, in vivo; remark: listed apart in the source
Procedure: Synthesis of the radiolabeled polypeptide was performed using a one-step kit formulation produced in house (Chelakit A+) containing a lyophilized mixture of stannous chloride as a reducing agent for technetium, methylene diphosphonic acid, p-aminobenzoate as a free-radical scavenger and sodium bicarbonate/sodium carbonate (pH 9.2) as buffer. In rapid succession, 20 µL of a 2 µg/µL solution of polypeptide in saline was added to the Chelakit, followed immediately by Na^99mTcO4 (0.8 mCi, 29.6 MBq) in 0.080 mL of saline (0.15M NaCl) obtained from Cardinal Health (Albany, NY). The mixture was agitated once and allowed to sit at ambient temperature for 20 min. Upon completion, the crude radiochemical yield was determined by ITLC (Table 6 below according to ITLC-SG, Biodex, 0.9% NaCl). […]
Mice were given tail-vein injections of ∼1 ug of ^99mTc-labeled polypeptides (∼10 µCi/1 µg). […] Three mice were euthanized at each timepoint and tissues of interest dissected and counted on a Perkin Elmer Wallac Wizard 1480 Gamma Counter. […] Urine from cages was pooled with the bladder and also counted. The remaining tissues were counted and the sum of all tissues plus urine for each animal was summed to provide the total injected dose. The % injected dose for each organ was determined based on this total, and organs were weighed for determination of the % injected dose per gram, (%ID/g). […]

## Z02891 (SEQ. ID No. 2) 18F-fluorobenzyl oxime: Z02891-ONH2 (Mal-AO on cysteine) reacted with [18F]4-fluorobenzaldehyde
SKOV3 tumors [1]
  kidneys, ID/organ: 0.95±0.07 ID/organ
  uptake in the liver: ca. 1.8 %ID/organ

## Z02891 (SEQ. ID No. 2) cPN216: Z02891 polypeptide conjugated with Mal-cPN216 via a terminal cysteine and labeled with 99mTc
SKOV3 tumors [2]
  kidneys, ID/organ: 10.58 ± 2.96 ID/organ
  uptake in the liver: 12 %ID/organ
